Test results reported in the nanobody polyreactivity screen of Harvey et al. (2022).

Experiment: yeast display, Sf9 membrane polyspecificity reagent, FACS + sequencing; frameworks hold sequencing errors
Procedure, shortened: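 Genes from sorted yeast were amplified by colony PCR, read by MiSeq 2 × 250 sequencing and filtered on CDR length. These cells carried a synthetic nanobody library in Saccharomyces cerevisiae BJ5465 and were sorted by FACS into low and high (top ~1%) gates on anti-HA and streptavidin fluorescence. Polyreactivity is labelled according to the gate of origin.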

Sequence	polyreactivity (PSR sort gate)
QVQLVESGRGLVLAGGSLRLSCAASGFIFSYNAMGSYRLAPGKERELVAAISSSGGTTYYADSVKGRFTISRDNAKNTVYLQMNSLKPEDTAVYYCAADGRTYHHHDCGWYRYDYWGQGSQVTVSS	low polyreactivity
QVQLVESGGGLVQAGGSNRLSCADSGLIFGFNTMGSYRQAPAKEREMVAVISSSGGSTYYADSVKARFTISRDNAKKTVYFQMNSLKPEDTAVYYSAARAYPVRYRRRDYWGQGTQVTVSS	high polyreactivity
QVQLVESGGGLVQAGGSLRLSCAASGSIFGYYAMGWYRQARGNERELGAAIRSTGSTNYADSVKGRFTISRDNAQNTVYLQMNSLKPEDTAVYYCAAGDITGGSGNWVVTPYDYGGQGTQVTVSS	high polyreactivity
QVQLVESGGGLVQAGGSLRLSCAASGSTINSYAMGWYRQAPGKERELVAAITWIGGNTYYADSVKGRFTISRDNAKNTVYLQMNSLKPEDTAVYYCAADEYFEYYYWGQGTQVTVSS	low polyreactivity
QVQLVESGGGLVQAGGSLRLSCAASGSIFGVNAMGWYRQAPGKERELVASITGGDSTNYADSVKGRFTISRDNAKNTVYLQMNSLKPEDTAVYYCAKDHYYRYEEGDYWGQGTQVTVSS	low polyreactivity
QVQLVESGGGLVQAGRSLRLSCAASGRIFQWNAMGWYRQAPGKERELVADITYSGSSTNYADSVKGRFTISRDNAKNSVYLQMNSVKPEVSAVYYCTRDFYQYLSYFWHYVYWGQGTQETVSS	low polyreactivity
QVQLEESGGGLVQAGGSLRLSCAASGSTFRANAMGWYRQAPGKERELVAAISSGDSTNYADSVKGRFTISRDNAKNTVYLQMNSLKPEDTAVYYCAAVYTYYWWGSYGFWGQGTQVTVSS	low polyreactivity
QVQLVESGGGLVQAGGSLRLSCAASGRIITRYTMGWYRQAPGKERELVASITSSGSSTYYADSVKGRFTISRDNAKNTFYLQMNSLKPEDTAVYYCAARSRLRYLYDYWGQGTQVTVSS	high polyreactivity
QVQLVESGGGLVQAGGSLRLSCAASGSILRRYAMGWYRQAPGKERELVAAINYSGGNTYYADSVKGRFTISRDNAKNTVYLQMNSLKPEDTAVYFCAAYYGPYSARYYGGYEYWGQGTQVTVSS	high polyreactivity
QVQLVESGGGLVQAGGSLRLSSAASGRIFPHNAMGWYRQAPGKERELVAAISSNGGSTYYADSVKGRFTISRDNAKNTVYLQMNSLKPEDTAVYYCAKYRYFAGDGDYWGQGTQVTVSS	low polyreactivity
QVQLVESGGGLVQAGGSLRLSCAASGSTFGSYTMGWYRQAPGKEREFVAAIRWIGGSTYYADSVKGRFTISRDNAKNTVYLQMNSLKPEDTAVYYCNAKRRKHGYYYWGQGTQVTVSS	high polyreactivity
QVQLVESGGGLVQAGGSLRLSCAASGGILSDYAMGWYRQAPGKERELVAAITISGGRTNYADSVKGRITISRDNAKITVYLQMNSLKPEDTAVSYCNKLPWSVRVYKPYDYWGEGTQVTVSS	low polyreactivity
QVQLVESGGGLDQAGGSLRLSFAASGFIFRYYTMGWYRQAPGKERELVAVITRGGSTYYADSVKGRFTISRDNAKNTVYLQMNSLKPEDTAVYYCAADRPGTGYSDYDYWGQGTQVTVSS	high polyreactivity
QVHLVESGGGLVQAGGSLRLSCAASGRTIGWNVMGWYRQAPGKERELVAAISGSGITYADSVKGRFTISRDNAKNTVYLQMNSLKPEDTAVYYCAARARRYTDEYDYWGQGTQVTLSS	low polyreactivity
QVQLVESGGGLVQAGGSLRLSSPASGFTFYYKGMGWYRQAPGKERELVATITSGGSTYYADSVKGRFTISSDNAKNTVYLQMNSLKPEDTAVYYCNRRISWRYVPTYDYWGQGTQVTVSS	high polyreactivity
QVQLVESGGGLVQAGGSLRLSCAASGFILGRYAMGWYRQAPGKERELVAAISIGGRTNYADSVKGRFTISRDNAKITVYFQMNSLKPEDTAVYYCATSFAVLLSQVDYWGQGTQVTVSS	low polyreactivity
QVQLVESGGGLVQAGGSLRLSCAASGSIFPWYAMGWYRPAPGKERELVADITNGSSTNYADSVKGRFTISRDNAKNTVYLQMNSLKPEDTAVYYCARDGIGADGYDYWGQGTQVTVSS	low polyreactivity
QVQLVESGGGLVQAGGSLRLSCAASGRTFGFYTMGWYRQAPGKERELVAGISRGGSTTYADSVKGRFTISRDNAKNTVYLQMNSLKPEDTAVYYCNADRSHYWLPYGVRFDYWGQGTQVTVSS	low polyreactivity
QVQLVESGGGLVQAGGSLRLSCAASGFIFYRYAMGWYRLAPGKERELVAAISSSGGSTYYADSVKGRFTISRDYAKYSVYLQMNSLKPEDTAVYYCAVDYWGQGTQVTVSS	high polyreactivity
QVQLVESGGGLVQAGGSLPLSCASSGSTFSTYAMGWYRQAPGKERELVAAIRWSGGSTYYADSVKGRFTLSRDNAKNTVYLLMTSLKPEDTAVYYCAKGIRRWYGGSDYWGQGTQVTVSS	low polyreactivity
QVQLVESGGGLVQAGGSLSLSCAASGSILAVNAMGWYRQAPGKERELVAAISSRGGSTSYADSVKGRFTISRDNAKNTVYLQMNSLKPEDTAVYYCAVRAVRRLRTSVPVRFYYWGQGTQVTVSS	high polyreactivity
QVRHVESGGGLVQAGGSLRLSCAASGGIFTTYAVGWYREAPGKEWELVARINSRGGRTYYADSVKGRFTISRDNAKYTVYLQMISLKPEDTGVYYCAVRNPRYFNEYDYWGQGTQVTVSS	low polyreactivity

Sequence	polyreactivity (PSR sort gate)
QVQLVESGGGLVQAGGSLRLICAASGSIFRLYAMGWYRQAPGKERELVAAIRWSGGRTYYADSVKGRFTISRDNAKNTVYLQMNSLKPEDTAVYYCAADYYLPAYPPQTFGYWGQGTQVTVSS	high polyreactivity
QVQLVESGGGLVQAGGSLRLSCAASGSTFVQYDMGWYRQAPGKERELVAGITRTGSTYADSVKGRFTISRDNAKNTVYLQMNSLKPEDTADYYCAVYVSGYAQTSRYDYWGQGTQVTVSS	low polyreactivity
QVQLVESGGGLVQAGGSLRLSCAASGGTFRRYAMGWYRQAPGKERELVAAISWTGGSTYYADSVKGRFTISRDNAKNTVYLQMNSLKPEDTGVYYCAAVGSSSSKGGYWGQGTQVTVSS	high polyreactivity
QVQLVESGGGLVQAGGSLRLSCAASGRIFSRYVMGWYRQAPGKERELVAAISWNGGSTYYADSVKGRFRISRDNAKNTVYFQMNSLIPEDTAVYYCAARVRVTGTYYTKYDYWGQGTQVTVSS	high polyreactivity
QVQLVESGGGLVQAGGSLRLSCAASGSTFFEYTMGWYRQAPGKEREFVADIRGRDGSTSYADSVKGRFTISRDNAKNTVYLQMNSLKPEDTAVYYCAADVSDWWSFGNDSWGQGTQVTVSS	low polyreactivity
QVQLVESGGGLVQAGGTLRLSCAASGSILQYNAMGWYRQATVKVSELVAAISRTGGSTYYADSVKGRFTISRDIAMNNLYLQMNSLKPEDTAVYYCNVYLGILYKYDYWGQGNQVTVSS	low polyreactivity
QVQLVESGGGLVQAGGSLRLSCAASGITFKGYTMGWYRQAPGKERELVATISRGGRTYADSVKGRFTISRDNAKNTVYLQMNSLKPEDTAVYYCAADKYWAQNDYWGQGTQVTVSS	low polyreactivity
QVQRVESGGGLVQAGGSLRLSCAASGSTFPPYGMGWSRQAPGKERELVAAITWRGGRTYYADSVKGRFTISRDNAKNTVYLQMNSLKPEDTAVYYCAASYGPRTGYATYRYASSRYNYWGQGTQVTVSS	high polyreactivity
QVQLVESGGGLVQAGGSLRLSCAASGSIFFPYTMGWYRQAPGKERELVARISLGGGRTYYADSVKGRFTISRDNAKNTVYLQMNSLKPEDTAVYYCNRGGWYAYYWGQGTQVTVSS	high polyreactivity
QVQLVESGGGLVQAGGSLRLSCAASGFTFSSYDMGWYRQAPGKERELVAAISRSGGSTYYADSVKGRFTISRDNAKNTVYLQMNCLKPEDTAVYYARAKYSRVTLYQGYGYWGQGTQVTVSS	high polyreactivity
QVQLVESGGGLVQAGGSLRLSCAASGFIFVYYAMGWYRQAPGKERELVAAISKRGGNTYYADSVKGRFTISRDNAKNTVYLQMNSLKPEDTAVYYCAAGFTTRRGEYNYWGQGTQVTVSS	high polyreactivity
QVQLVESGGGLVQAGGSLRLSCAASGRIFGYYAMGWYRQAPGKERELVAAISQGGGSTYADSVKGRFTISRDNAKNTVYLQMNSLKPEDTAVYYCAKRRRTGYGYWGQGTQVTVSS	high polyreactivity
QVQLVESGGGLDQAGGSLRLSSAASVSIFRYNTMGWYRPAPGKEREFVDSIRIGGSTYYADSVKGRFTISRDNAKNTVYLQMNSLKPEDTAVYYCAVRPYRSAGGSVTRGAYYYWGQGTQVTVSS	high polyreactivity
QVQLVESGGGLVQAGGSLRLSCAASGITFPRYAMGWYRQAPGKERELVAAISKSGGRTYYADSVKGRFTISRDNAKNTVYLQMISLKPEDTAVYYCAADPLLGYLSHYYWGQGTQVTVSS	high polyreactivity
QVQLVESGGGLVQAGGSLRLTCAASGIIFYGYAMGCYRQAPGKERELVADISFSGGRTYYSDSVKGRFTISRDNAKNTVYLQMNRLKQEDTAVYYCAKRRFYRTSQYVKYDYWGQGTQVTVSS	low polyreactivity
QVQLVESGGGLVQAGGSLRLSCAASGSIFTLYDMGWYRQAPGKERELVAAITSGGSTDYADTVKGRFTISRDNAKNTVYLQMNSLKPEDTAVYYCNAESFTYWYRGASREYDYWGQGTQVTVSS	low polyreactivity
QVQLVESGGGLVQAGGSLRLSCAASGSIFVGNAMGWYRQAPGKERELVAAISSSGGRTFYADSVKWRFTISRDNAKNTVYLQMNSLKPEDTAVYYCAAVYTHWQQRMDYWGQGTQVTVSS	high polyreactivity
QVQLVESGGGLVQAGGSLRLSCAASGRIFGIYAMGWYRQAPGKERELVAAINSGDSTYADSVKGRFTISRDNAKNTVYLQMNSLKPEDTAVYYCAAEESTSSWSINDYWGQGTQVNVSS	low polyreactivity
QVQLVESGGGLVQAGGSLRLSCAASGSIFGENAMGWDRQAPGKERELVAAITSGGSTDYADSVKGRFTISRDNAKNTVYLQMNSLKPEDTAVYYCAASGRVGPGYWYDSWGQGTQVTVSS	low polyreactivity
QVQLVESGGGLVQAGGSLRLSCAASGFICAQNAMGWYRQAPGKERELVADISGRGGRTYYADSVKGRFTISRDNAKNTVYLQMNSLKPEDTAVYYCAKDTYLQIYQYGYWGQGTQVTVSS	high polyreactivity
QVQLVESGGGLVQAGGSLRLSCAASGFTFPYYAMGWYRPAPGKDRELVARISSGGSTHYADSVKGRFTISRDNAKNTVYVQMNSLKPEDTADYYCAREPWWGYHGEYDYWGQGTEVTVSS	high polyreactivity
